The values that follow come from PMC5795439.

Series [1] can be described thus: flow cytometry, surface anti-HA, 293T. The note with it: glycan changed form; control: untreated, same construct.
Series [2] in a line: virus release efficiency, p24 western blot, 293T. The note with it: glycan changed form; control: untreated, same construct.
A short description of series [3]: anti-HA western blot of 293T lysates. The note with it: glycan lost.
Series [4] is described as follows: virus release efficiency, p24 western blot, 293T.
Series [5] in a line: flow cytometry, surface anti-HA, 293T.
A short description of series [6]: virus release efficiency, HeLa endogenous tetherin. The note with it: glycan changed form; control: untreated HeLa.
The nature of series [7]: immunofluorescence microscopy, anti-tetherin, HeLa. The note with it: glycan changed form; control: untreated HeLa.
Series [8] is described as follows: flow cytometry, surface anti-tetherin, HeLa. The note with it: glycan changed form; control: untreated HeLa.
[9] abbreviates: glycan lost, control: untreated WT tetherin.
Setting [10] is: glycan lost, control: wild type.
Setting [11] is: glycan changed form, control: untreated, same construct.

For the molecule tetherin: kifunensine (N92A tetherin), the localisation_or_trafficking result in series [1] is reported as “decreases”. In addition, the “other: restriction of HIV-1 release” value in series [2] is “no change”.

Turning to tetherin: kifunensine (N65A tetherin), in series [1], the localisation_or_trafficking entry is given as “decreases”. The “other: restriction of HIV-1 release” value in series [2] was “no change”.

B1: tetherin: tunicamycin (protein)
parent chain: MASTSYDYCRVPMEDGDKRCKLLLGIGILVLLIIVILGVPLIIFTIKANSEACRDGLRAVMECRNVTHLLQQELTEAQKGFQDVEAQAATCNHTVMALMASLDAEKAQGQKKVEELEGEITTLNHKLQDASAEVERLRRENQVLSVRIADKKYYPSSQDSSSAAAPQLLIVLLGLSALLQ
In the case of B1, in series [3] (control: untreated WT tetherin), the expression_or_secretion entry was “no change”. Also, the “other: restriction of HIV-1 release, fold_change” value in series [4] (setting [9]) was “decreases”. Moreover, the localisation_or_trafficking entry in series [5] (setting [9]) is reported as “decreases”.

B2: tetherin: N65,92A (protein)
parent chain: MASTSYDYCRVPMEDGDKRCKLLLGIGILVLLIIVILGVPLIIFTIKANSEACRDGLRAVMECRNVTHLLQQELTEAQKGFQDVEAQAATCNHTVMALMASLDAEKAQGQKKVEELEGEITTLNHKLQDASAEVERLRRENQVLSVRIADKKYYPSSQDSSSAAAPQLLIVLLGLSALLQ
Take B2: in series [3] (control: wild type), the expression_or_secretion result was “increases”. Besides, in series [4] (setting [10]), the “other: restriction of HIV-1 release” value was “abolishes, there was a small (25%) decrease in VRE at 0.8 μg of input DNA”. The localisation_or_trafficking result in series [5] (setting [10]) was “decreases”.

B3: tetherin: N65A (protein)
parent chain: MASTSYDYCRVPMEDGDKRCKLLLGIGILVLLIIVILGVPLIIFTIKANSEACRDGLRAVMECRNVTHLLQQELTEAQKGFQDVEAQAATCNHTVMALMASLDAEKAQGQKKVEELEGEITTLNHKLQDASAEVERLRRENQVLSVRIADKKYYPSSQDSSSAAAPQLLIVLLGLSALLQ
Take B3: the expression_or_secretion entry in series [3] (control: wild type) is “no change”. Moreover, the “other: restriction of HIV-1 release” value in series [4] (setting [10]) is recorded as “no change”. Also, the localisation_or_trafficking result in series [5] (setting [10]) is listed as “no change”.

B4: tetherin: kifunensine (protein)
parent chain: MASTSYDYCRVPMEDGDKRCKLLLGIGILVLLIIVILGVPLIIFTIKANSEACRDGLRAVMECRNVTHLLQQELTEAQKGFQDVEAQAATCNHTVMALMASLDAEKAQGQKKVEELEGEITTLNHKLQDASAEVERLRRENQVLSVRIADKKYYPSSQDSSSAAAPQLLIVLLGLSALLQ
In the case of B4, the “other: restriction of HIV-1 release” value in series [6] is recorded as “no change”. The localisation_or_trafficking result in series [7] and in series [8] was “no change” in each case.

B5: tetherin: kifunensine (WT tetherin) (protein)
parent chain: MASTSYDYCRVPMEDGDKRCKLLLGIGILVLLIIVILGVPLIIFTIKANSEACRDGLRAVMECRNVTHLLQQELTEAQKGFQDVEAQAATCNHTVMALMASLDAEKAQGQKKVEELEGEITTLNHKLQDASAEVERLRRENQVLSVRIADKKYYPSSQDSSSAAAPQLLIVLLGLSALLQ
Regarding B5, in series [4] (setting [11]), the “other: restriction of HIV-1 release” value is on record as “no change”. Further, the localisation_or_trafficking result in series [5] (setting [11]) is “decreases”.

B6: tetherin: N92A (protein)
parent chain: MASTSYDYCRVPMEDGDKRCKLLLGIGILVLLIIVILGVPLIIFTIKANSEACRDGLRAVMECRNVTHLLQQELTEAQKGFQDVEAQAATCNHTVMALMASLDAEKAQGQKKVEELEGEITTLNHKLQDASAEVERLRRENQVLSVRIADKKYYPSSQDSSSAAAPQLLIVLLGLSALLQ
On to B6, for which the expression_or_secretion entry in series [3] (control: wild type) is listed as “no change”. Moreover, the “other: restriction of HIV-1 release” value in series [4] (setting [10]) was “no change”. Also, the localisation_or_trafficking result in series [5] (setting [10]) is “no change”.
